Test results: patent US20170088585A1

Target: Aβ40 (UniProt P05067)
Experiment: cell-based or functional assay

Sequence of Aβ40 (P05067 672-711 limits assumed): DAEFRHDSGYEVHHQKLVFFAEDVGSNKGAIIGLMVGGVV

| Substance | Inhibition at 1:1 (ThT assay, Aβ:cyclic peptide) [%] | Inhibition at 1:1/3 (ThT assay, Aβ:cyclic peptide) [%] |
| --- | --- | --- |
| [lJwHsK]: Cyclo-D-leucine-L-noreucine-D-tryptophan-L-histidine-D-serine-L-lysine (peptide) | 69 | 37 |
| [lZwHsK]: Cyclo-D-leucine-L-2-aminooctanoic acid-D-tryptophan-L-histidine-D-serine-L-lysine (peptide) | 55 | 42 |
